For this data set, the target named is vimentin (human, UniProt P08670 2-466). Put plainly: filter binding; Filter binding: 20 mM Tris, 150 mM NaCl, pH 8.0, 2 h, room temperature, 10 uL; flow cytometry: fixed IGROV cells, 22 C, 1 h; microscopy: 37 C, 1 h. The following applies: label: 5'-biotin; predicted stem-loop.
vimentin, sequence (P08670 2-466): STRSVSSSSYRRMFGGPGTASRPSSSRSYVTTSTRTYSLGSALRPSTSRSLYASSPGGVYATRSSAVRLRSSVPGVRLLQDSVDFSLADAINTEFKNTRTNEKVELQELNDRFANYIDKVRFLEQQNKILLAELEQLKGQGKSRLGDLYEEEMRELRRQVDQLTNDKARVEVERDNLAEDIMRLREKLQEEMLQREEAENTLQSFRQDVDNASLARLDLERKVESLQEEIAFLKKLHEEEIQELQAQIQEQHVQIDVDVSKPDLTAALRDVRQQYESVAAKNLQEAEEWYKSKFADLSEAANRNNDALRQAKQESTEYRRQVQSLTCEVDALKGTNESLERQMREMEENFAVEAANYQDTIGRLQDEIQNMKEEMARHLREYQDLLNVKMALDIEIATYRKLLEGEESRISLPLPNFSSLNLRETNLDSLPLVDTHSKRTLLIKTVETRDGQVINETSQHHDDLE

Take ACCTCTTCAAGAACATCCCTGTCACGGATCCTCTAGAGCA (XNA, monothioated phosphates 3' of adenines (shown in red, positions not in text)) [V3M2]: the dissociation constant Kd was 18.9 nM.

On to TAGACCCAGCTGGTCCGGAAAATAAGATGTCACGGATCCTC (XNA, monothioated phosphates 3' of adenines (shown in red, positions not in text)) [V5M2], for which the Kd is 47.4 nM.

The record behind these values is article PMC8588432, “Selection and Characterization of Vimentin-Binding Aptamer Motifs for Ovarian Cancer”.
